Results published in paper PMC11700871 (Theranostics, 2025).
Read-outs that look alike come from different tables or passages of the source. Where a SMILES comes first, the peptide text is derived from it. The star is where a group is joined. X1 = O=C(O)c1cc(N*)ccc1O

Assays:
[1] = Biodistribution by NIRF imaging in naive and ALF mice; assay type: in vivo, C57BL/6 mice; conditions: ALF mice, intravenous
Procedure: The in vivo behavior of SPNs was assessed in healthy mice and APAP-induced ALF models. […] Fluorescence intensity in the images was quantified using LivingImage software. Ex vivo NIRF imaging was conducted with major organs collected from the mice 9 h post-treatment.

APAP-induced ALF model = assay: Therapeutic efficacy in APAP-induced ALF mouse model; assay type: in vivo, C57BL/6 mice; conditions: ALF mice
Procedure: The in vivo therapeutic efficacy of SPNs was evaluated in an APAP-induced ALF model.
Following 24 h of treatment, liver tissue was collected from the mice and then stained with H&E, fluorescent dye-conjugated antibodies (TNF-α, 506303, Biolegend; IL-6, 504503, Biolegend; and IL-10, 505005, Biolegend) or TUNEL (G3250, Promega). A portion of the liver tissues was dispersed in lysis buffer and subsequently centrifuged to remove debris, followed by western blot for MAPK and assessment of cytokines, such as TNF-α, IL-6, IL-1β and IL-10, via ELISA assays. Hematological parameters were analyzed by KNOTUS (Incheon, Republic of Korea).

normal C57BL/6 mice = conditions: mouse, in vivo
Procedure: The body weight was measured every two days. Seven days after treatment, the hematological parameters were assessed, including AST, ALT, BUN, creatinine, LDH, CK, red blood cell (RBC), hemoglobin (HGB), hematocrit (HCT), platelet (PLT), white blood cell (WBC), neutrophil (NEU) and lymphocyte (LYM). Major organs were collected from the mice and then observed using optical microscopy after H&E staining (BX 51, Olympus, USA). The levels of TNF-α, IL-1β and IL-6 in homogenized kidney tissues were quantified via ELISA assays.

healthy LO-2 cells [2] = assay: Release of DAMPs (HMGB1, HSP70) from healthy hepatocytes; conditions: supernatants, western blot
Procedure: (§2) The cells were then washed with DPBS and dispersed in lysis buffer, followed by centrifugation at 12,000 rpm for 30 min to remove cell debris. Subsequently, the proteins were quantified using a BCA assay kit (23221, Thermo Fisher Scientific), boiled after mixing with sodium dodecyl sulfate loading buffer (NaraBio, Gyeonggi-do, Republic of Korea) for 5 min, and separated by 10% SDS polyacrylamide gel electrophoresis. […] HMGB1 and HSP70 were analyzed in the supernatants after incubating LO-2 cells using the same protocol described above. Finally, the membranes were incubated with goat anti-rabbit immunoglobulin-HRP antibody for 2 h.

Cat-B = target: T1, Cat-B (Homo sapiens, UniProt P07858); assay: Enzyme-specific cleavage by HPLC, Cat-B; assay type: in vitro ADME; conditions: 1 h, pH 5.5 MES buffer, 37°C, HPLC and LC/MS
T1 construct: purchased R&D systems 953CY
Procedure: (§1) After a 30 min reaction, the final product was purified and analyzed using an LC/MS system (Agilent 1200 Series HPLC system). The hydrodynamic size and zeta potential were analyzed by using a Zetasizer (Nano ZS, Malvern Instruments, Worcestershire, UK). The morphology of SPNs in distilled water was observed using transmission electron microscopy (CM-200, Philips, USA). The target enzyme-specific cleavage was evaluated through HPLC analysis after incubation with Cat-B (953CY, R&D systems, MN, USA), Cat-E (1294-AS, R&D systems), Cat-D (1014-AS, R&D systems), Cat-L (952-CY, R&D systems), MMP-9 (911-MP, R&D systems) or Cas-3 (707-C3/CF, R&D systems) in pH 5.5 2-(N-morpholino)ethane sulfonic acid (MES) buffer at 37°C.

Cat-D = target: T2, Cat-D (Homo sapiens, UniProt P07339); assay: Enzyme-specific cleavage by HPLC, Cat-D; assay type: in vitro ADME; conditions: 24 h, pH 5.5 MES buffer, 37°C
T2 construct: purchased R&D systems 1014-AS
Procedure: as §1

Cat-E = target: T3, Cat-E (Homo sapiens, UniProt P14091); assay: Enzyme-specific cleavage by HPLC, Cat-E; assay type: in vitro ADME; conditions: 24 h, pH 5.5 MES buffer, 37°C
T3 construct: purchased R&D systems 1294-AS
T3 sequence (P14091 54-396): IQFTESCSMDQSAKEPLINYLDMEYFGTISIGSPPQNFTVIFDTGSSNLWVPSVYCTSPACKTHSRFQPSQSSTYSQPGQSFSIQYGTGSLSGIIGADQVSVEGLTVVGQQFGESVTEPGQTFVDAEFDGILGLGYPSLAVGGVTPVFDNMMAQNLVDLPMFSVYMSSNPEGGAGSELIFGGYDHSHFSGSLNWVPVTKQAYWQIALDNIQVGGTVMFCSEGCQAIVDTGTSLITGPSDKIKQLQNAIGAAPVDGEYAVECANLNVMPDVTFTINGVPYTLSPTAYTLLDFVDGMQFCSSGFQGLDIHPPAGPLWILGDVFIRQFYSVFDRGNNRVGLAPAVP
Procedure: as §1

Cat-L = target: T4, Cat-L (Homo sapiens, UniProt P07711); assay: Enzyme-specific cleavage by HPLC, Cat-L; assay type: in vitro ADME; conditions: 24 h, pH 5.5 MES buffer, 37°C
T4 construct: purchased R&D systems 952-CY
Procedure: as §1

Caspase 3 (Cas-3) = target: T5, Caspase 3 (Cas-3) (Homo sapiens, UniProt P42574); assay: Enzyme-specific cleavage by HPLC, Caspase 3; assay type: in vitro ADME; conditions: 24 h, pH 5.5 MES buffer, 37°C
T5 construct: purchased R&D systems 707-C3/CF
T5 sequence (P42574 29-175 limits assumed): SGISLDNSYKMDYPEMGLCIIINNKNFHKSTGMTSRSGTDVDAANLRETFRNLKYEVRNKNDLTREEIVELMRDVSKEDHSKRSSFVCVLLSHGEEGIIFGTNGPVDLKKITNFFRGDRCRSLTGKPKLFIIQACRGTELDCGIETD
T5 sequence (P42574 176-277 limits assumed): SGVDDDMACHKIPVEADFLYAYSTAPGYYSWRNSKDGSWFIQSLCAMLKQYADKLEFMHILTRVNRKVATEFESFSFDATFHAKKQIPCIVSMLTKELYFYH
Procedure: as §1

[3] = target: T6, matrix metalloproteinase 9 (MMP-9) (Homo sapiens, UniProt P14780); assay: Enzyme-specific cleavage by HPLC, MMP-9; assay type: in vitro ADME; conditions: 24 h, pH 5.5 MES buffer, 37°C
T6 construct: purchased R&D systems 911-MP
Procedure: as §1

LO-2 cells [4] = assay: Cytotoxicity assay (CCK-8), LO-2; assay type: cell-based, human; conditions: 0 to 20 mM, 24 h, compared with mesalamine
MIHA cells = assay: Cytotoxicity assay (CCK-8), MIHA; assay type: cell-based, human; conditions: 0 to 20 mM, 24 h, compared with mesalamine
HepG2 cells = assay: Cytotoxicity assay (CCK-8), HepG2; assay type: cell-based; conditions: 0 to 20 mM, 24 h, compared with mesalamine
healthy LO-2 cells [5] = test system: healthy LO-2 cells
Procedure: as §2

LO-2 cells [6] = assay: Expression of Cat-B and CHOP in hepatocytes after drug exposure; assay type: cell-based, human; conditions: LO-2 cells after treatment with APAP
From the text: We initially investigated the changes within human hepatocytes in response to drug exposure.

T2 sequence (P07339 65-412): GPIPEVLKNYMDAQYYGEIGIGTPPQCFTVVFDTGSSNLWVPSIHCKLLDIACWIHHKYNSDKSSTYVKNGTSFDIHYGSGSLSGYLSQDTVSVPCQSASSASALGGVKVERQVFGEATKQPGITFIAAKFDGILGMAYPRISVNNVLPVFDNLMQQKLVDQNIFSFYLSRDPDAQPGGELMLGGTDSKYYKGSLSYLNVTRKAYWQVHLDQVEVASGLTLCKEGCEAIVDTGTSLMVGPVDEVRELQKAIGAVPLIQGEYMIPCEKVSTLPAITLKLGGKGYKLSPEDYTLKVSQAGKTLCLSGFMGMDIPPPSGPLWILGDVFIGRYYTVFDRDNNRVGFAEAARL
T4 sequence (P07711 114-333): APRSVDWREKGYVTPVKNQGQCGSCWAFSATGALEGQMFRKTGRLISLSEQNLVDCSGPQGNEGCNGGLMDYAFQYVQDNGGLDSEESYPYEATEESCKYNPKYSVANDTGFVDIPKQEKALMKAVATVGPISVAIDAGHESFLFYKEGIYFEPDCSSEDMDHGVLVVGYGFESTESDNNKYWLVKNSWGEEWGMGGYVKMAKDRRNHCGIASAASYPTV
T6 sequence (P14780 94-707): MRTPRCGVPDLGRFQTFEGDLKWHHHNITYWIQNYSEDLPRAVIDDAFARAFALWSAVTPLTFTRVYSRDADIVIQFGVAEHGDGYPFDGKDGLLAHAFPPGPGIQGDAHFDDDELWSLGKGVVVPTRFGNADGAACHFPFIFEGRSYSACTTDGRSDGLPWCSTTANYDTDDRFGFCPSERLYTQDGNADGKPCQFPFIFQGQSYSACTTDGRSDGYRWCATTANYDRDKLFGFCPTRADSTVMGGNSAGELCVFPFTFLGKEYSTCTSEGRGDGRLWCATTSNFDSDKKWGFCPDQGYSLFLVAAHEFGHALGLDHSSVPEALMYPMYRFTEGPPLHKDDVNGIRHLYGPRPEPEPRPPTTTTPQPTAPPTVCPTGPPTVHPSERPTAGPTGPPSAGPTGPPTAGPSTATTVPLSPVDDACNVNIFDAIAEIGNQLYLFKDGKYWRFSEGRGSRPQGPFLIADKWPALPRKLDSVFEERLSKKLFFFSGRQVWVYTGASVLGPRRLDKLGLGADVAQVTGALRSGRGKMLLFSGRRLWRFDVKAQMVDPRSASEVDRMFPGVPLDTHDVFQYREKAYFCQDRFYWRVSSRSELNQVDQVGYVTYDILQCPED

For `CCN1\C(=C/C=C/C=C/C2=[N+](CCCCCC(=O)O)c3ccc4c(S(=O)(=O)O)cc(S(=O)(=O)O)cc4c3C2(C)C)C(C)(C)c2c1ccc1c(S(=O)(=O)[O-])cc(S(=O)(=O)O)cc21` [free Cy5.5], the “in vivo clearance (NIRF imaging)” value [1] was “rapid in vivo clearance”.

For `Nc1ccc(O)c(C(=O)O)c1` [mesalamine], the body weight change (APAP-induced ALF model; 24 h of treatment, mesalamine or SPNs 5 mg/kg mesalamine content i.v.) was “even more severe weight loss relative to the PBS group”, the “AST and ALT levels” value (APAP-induced ALF model; 24 h post-treatment, 5 mg/kg mesalamine content i.v.) was “higher levels of these parameters compared to the PBS group” and the “histopathological toxicities in major organs” value (normal C57BL/6 mice) was “substantial structural abnormalities and damaged areas in major organs”. The “release of DAMPs (HMGB1 and HSP70)” value (healthy LO-2 cells [2]) was “significantly higher levels”.

In the case of `CC(=O)N[C@@H](Cc1ccccc1)C(=O)N[C@@H](CCCNC(=N)N)C(=O)N[C@@H](CCCNC(=N)N)C(=O)NCC(=O)Nc1ccc(O)c(C(=O)O)c1` [SPNs] (Ac-FRRG-X1), the “cleavage upon incubation with Cat-B” value (Cat-B) is reported as “completely decomposed into mesalamine”, the “cleavage upon incubation with Cat-D” value (Cat-D) is reported as “no detectable cleavage” and the “cleavage upon incubation with Cat-E” value (Cat-E) is reported as “no detectable cleavage”. For the same compound, the “cleavage upon incubation with Cat-L” value (Cat-L) was “no detectable cleavage”, the “cleavage upon incubation with Cas-3” value (Caspase 3 (Cas-3)) was “no detectable cleavage” and the “cleavage upon incubation with MMP-9” value [3] was “no detectable cleavage”. The “toxicity to LO-2 cells (cell viability)” value (LO-2 cells [4]) was “significantly minimized the toxicity of mesalamine”, the “toxicity to MIHA cells (cell viability)” value (MIHA cells) was “significantly minimized the toxicity of mesalamine” and the “toxicity to HepG2 cells (cell viability)” value (HepG2 cells) was “significantly minimized the toxicity of mesalamine”. The “histopathological toxicities in major organs” value (normal C57BL/6 mice) was “not observed” and the “release of DAMPs (HMGB1 and HSP70)” value (healthy LO-2 cells [5]) was “did not increase DAMP release”.

For `CC(=O)Nc1ccc(O)cc1` [APAP, acetaminophen], the “Cat-B level compared to the naive cells” value (LO-2 cells [6]) was 4.22 fold and the “increase in C/EBP homologous protein (CHOP) compared to the naive cells” value (LO-2 cells [6]) was 1.58 fold.

With `CC(=O)N[C@@H](CS)C(=O)O` [NAC, N-acetylcysteine] the “effects in preventing body weight loss and histohematological changes” value (APAP-induced ALF model; NAC 100 mg/kg i.v., compared with SPNs) was “limited effects”.
